A short description of this data set: yeast display, Sf9 membrane polyspecificity reagent, FACS + sequencing; frameworks hold sequencing errors. The method in brief: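 A nanobody's polyreactivity label depends on the gate it was sorted from. Yeast display cells were stained with 10% biotinylated, detergent-solubilized Sf9 membrane reagent for 1 hour at 4 °C, enriched on streptavidin microbeads and sorted by FACS. The low and high (top ~1%) gates were set on anti-HA fluorescence for expression and streptavidin fluorescence for reagent binding.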
With “QVQLVESGGGLVQAGGSLRLSCAASGRIFGYYAMGWYIQAHGKERELVAAINSGSRTYYADSVKGRFTISRDNAKNTVYLQMNSLKPEDTAVYYCAARVRYPPYRSSDGQRGGYWGQGTQVTVSS”, the “polyreactivity (PSR sort gate)” value is on record as “high polyreactivity”.

Regarding “QVQLVESGGGLVQAGGSLRLSCAASGRIFGYYAMGWYRLAPGKERELVAAITSGGRTTYADSVKGRFTISRDNAKNTVYVQMNSLKPEDTAVYYCAKEYPRYSSPYDYWGQGTQVTVSS”, the “polyreactivity (PSR sort gate)” value is given as “low polyreactivity”.

For the sequence “QVQLVESGGGLVQAGGSLRLSCAASGRIFGYYAMGWYRQAPGKEMELVARITWSGGDTYYADSVKGRFTISRDNAKNTVYLQMNSLKPEDTAVYYCAADYLDSTYGYVYGWDDYWGQGTQVTVSS”, the “polyreactivity (PSR sort gate)” value is recorded as “low polyreactivity”.

With “QVQLVESGGGLVQAGGSLRLSCAASGRIFGYYAMGWYRQAPGKERELVAAINSGSRTYYADSVKGRFTISRDNAKNTVYLQMNSLKPEDTAVYYCAARVRYPPYRSSDGQRGGYWGQGTQVTVSS”, the “polyreactivity (PSR sort gate)” value is reported as “high polyreactivity”.

“QVQLVESGGGLVQAGGSLRLSCAASGRIFGYYAMGWYRQAPGKERELVAAISSSDGSTYYADSVKGRFTISRDNAKNTVYLQMNSLKPEDTAVYYCAASYYNWDVYQLSYRYDYWGQGTQVTVSS”: the “polyreactivity (PSR sort gate)” value is reported as “low polyreactivity”.

On to “QVQLVESGGGLVQAGGSLRLSCAASGRIFGYYTMGWYRQAPGKEREFVASISTTGGSTYYADSVKGRFTISRDNAKNTVYLQMNSLKPEDTAVYYCNVYYWYGSRGSYALGKEYDYWGQGTQVTVSS”, for which the “polyreactivity (PSR sort gate)” value is “high polyreactivity”.

For the sequence “QVQLVESGGGLVQAGGSLRLSCAASGRIFGYYTMGWYRQAPGKERELVAGITRRGGRTYYADSVKGRFTISRDNAKNTVYLQMNSLKPEDTAVYYCAVRSGVNFYYWGQGTQVTVSS”, the “polyreactivity (PSR sort gate)” value is “high polyreactivity”.

For “QVQLVESGGGLVQAGGSLRLSCAASGRIFGYYTMGWYRQAPWKESELVARIRRNGVSTYYADSVKGRFTISRDNEKNTVYLQMNSLKPEDTAVYYCAAGYSINFKYDYWGQGTQVTVSS”, the “polyreactivity (PSR sort gate)” value is on record as “high polyreactivity”.

In the case of “QVQLVESGGGLVQAGGSLRLSCAASGRIFHANAMGWYRQAPGKERELVAGISRNGGRTYYADSVKGRFTISRDNAKNTVYLQMNSLKPEDSAVYYCNALHWHSNELDYYWGQGTQVTVSS”, the “polyreactivity (PSR sort gate)” value is on record as “high polyreactivity”.

Consider “QVQLVESGGGLVQAGGSLRLSCAASGRIFHANAMGWYRQAPGKERELVAGISRNGGRTYYADSVKGRFTISRDNAKNTVYLQMNSLKPEDTAVYYCAARVWGSSQYYYWGQGTQVTVSS”, for which the “polyreactivity (PSR sort gate)” value is “high polyreactivity”.

For the sequence “QVQLVESGGGLVQAGGSLRLSCAASGRIFHFYAMGWYRQAPGKERELVAAITSRTGNTYYADSVKGRFTISRDNAKNTVYLQMNSLKPEDTAVYYCAAKLVNALLHYRNWNHINYWGQGTQVTVSS”, the “polyreactivity (PSR sort gate)” value is recorded as “low polyreactivity”.

In the case of “QVQLVESGGGLVQAGGSLRLSCAASGRIFHFYAMGWYRQAPGKERELVAAITSRTGNTYYADSVKGRYTISRDNAKNTVYLQMNSLKPEDTAVYYCAAKLVNALLHYRNWNHNNYWGQGTQVNVSS”, the “polyreactivity (PSR sort gate)” value is given as “low polyreactivity”.

For “QVQLVESGGGLVQAGGSLRLSCAASGRIFHFYAMGWYRQAPGKERELVASITWRGGRTYYADSVKGRFTISRDNAKNTVYLQMNSLKPEDTAVYYCAADFRSGFSSSTTPVQSDWGQGTQVTVSS”, the “polyreactivity (PSR sort gate)” value was “low polyreactivity”.

As to “QVQLVESGGGLVQAGGSLRLSCAASGRIFHGYVMGWYRQAPGKERELVAAINQSGTSTYYADSVKGRFTISRDNAKNTVYLQMNSLKPEDTAVYYCAKDWAYRRHWVGFYYWGQGTQVTVSS”, the “polyreactivity (PSR sort gate)” value is reported as “low polyreactivity”.

As to “QVQLVESGGGLVQAGGSLRLSCAASGRIFHNYAMGWYRQAPGKERELVAAISSSGGRTTYADSVKGRFTISRDYAKNTVYLQMNSLKPEDTAVDYCAKRYPHIGDYWGEGTQVTVSS”, the “polyreactivity (PSR sort gate)” value is “high polyreactivity”.

Take “QVQLVESGGGLVQAGGSLRLSCAASGRIFHPNAMGWYIQAPGKERELDAAISRSGSTYYADSVKGRFTISRDNAKNTVYLQMNSLKPEDTAVYYCATQTWSCFSGTPRIYDYWGQGTQVTVSS”: the “polyreactivity (PSR sort gate)” value is “high polyreactivity”.

Turning to “QVQLVESGGGLVQAGGSLRLSCAASGRIFHQYAIGWSRPAPGKERELVAAISSGGGSTYYADSVKGRFTISRDNAKNTVYLQMNSLKPEDNAVYYCAAVYDYDRGVNYWGQGTQVTVSS”, the “polyreactivity (PSR sort gate)” value is on record as “high polyreactivity”.

Regarding “QVQLVESGGGLVQAGGSLRLSCAASGRIFHVYVMGWYRPAPGKERELVAAITWRGGRTYYADSVKGRFTISRDNAKNTVYLQMNSLKPEDTAVYYCKAVAYWYDYQYDYWGQGTQVTVSS”, the “polyreactivity (PSR sort gate)” value is reported as “high polyreactivity”.

“QVQLVESGGGLVQAGGSLRLSCAASGRIFHWYAMGWYRQAPGKERELVATANTSYADSVKGRFTISRDNAKNTVYLQMNSLKPEDTAVYYCATVGPRGRSLGDYWGQGTQVTVSS”: the “polyreactivity (PSR sort gate)” value was “low polyreactivity”.

Turning to “QVQLVESGGGLVQAGGSLRLSCAASGRIFHYNAMGWYRQAPGKERELVARITWTGGSTYYADSVKGRFTISRDNAKNTVYLQMNSLKPEDNAVYYCAAKWSYTKGRYYYWGQGTQVTVSS”, the “polyreactivity (PSR sort gate)” value was “high polyreactivity”.

Regarding “QVQLVESGGGLVQAGGSLRLSCAASGRIFIGNAMGWYRQAPGKERELVAAISKRGGSTYYADSVKGRFTISRDNAKNTVYLQMNSLKPVDTAVYYCAVDGYVGVADYEYDNWGQGTQVTVSS”, the “polyreactivity (PSR sort gate)” value is “low polyreactivity”.

In the case of “QVQLVESGGGLVQAGGSLRLSCAASGRIFIGYAMGWYRQAPGKERELVAAITSGGRTYYADSVKGRFTISRDNAKNTVYLQMNSLKPEDTAVYYCYRAAFRYRYDYWGQGTQVTVSS”, the “polyreactivity (PSR sort gate)” value is listed as “high polyreactivity”.

For “QVQLVESGGGLVQAGGSLRLSCAASGRIFIIYAMGWYRQAPGKERELVAAINRGATTNYADSVKGRFTISRDNAKNTVYLQMNSLKPEDTAVYYCAARGVAKLRRVGYWGQGTQVTVSS”, the “polyreactivity (PSR sort gate)” value is listed as “high polyreactivity”.

In the case of “QVQLVESGGGLVQAGGSLRLSCAASGRIFIKYAMGWYRQAPGKERELVAAISQSGGSTYYADSVKGRFTISRDNAKNTVYLQMNSLKPEDTAVYYCAVRLYYSIRYYYWGQGTQVTVSS”, the “polyreactivity (PSR sort gate)” value was “high polyreactivity”.

Regarding “QVQLVESGGGLVQAGGSLRLSCAASGRIFIPNTMGWYIQAPGKERELVAAITWSGSSTYYADSVKGRFTISRDNAKNTVYLQMNSLKPEDTAVYYCAAYPSCYVVVSKGDYWGQGTQVTVSS”, the “polyreactivity (PSR sort gate)” value is listed as “high polyreactivity”.

In the case of “QVQLVESGGGLVQAGGSLRLSCAASGRIFIPYVMGWYRQAPGKERELVAVITESGGSTYYADSVKGRFTISRDNAKNTVYLQMNSLKPEDTAVYYCATRYGRGARTYHYYYWGQGTQVTVSS”, the “polyreactivity (PSR sort gate)” value was “high polyreactivity”.

Take “QVQLVESGGGLVQAGGSLRLSCAASGRIFIQNTMGWYRQAPGKERELVAAITRSGGRTYYADSVKGRFTISRDNAKNTVYLQMNSLKPEDTAVYYCAAVARTVPSYSYNYWGQGTQVTVSS”: the “polyreactivity (PSR sort gate)” value is given as “high polyreactivity”.

For “QVQLVESGGGLVQAGGSLRLSCAASGRIFIRNAMGWYRPAPGKERELVAAITQSGGSTYYADSVKGRFTISRDNAKNTVYLQMNSLKPEDTAVYYCAADGDNPYLHEEDYWGQGTQVTVSS”, the “polyreactivity (PSR sort gate)” value is recorded as “high polyreactivity”.

Consider “QVQLVESGGGLVQAGGSLRLSCAASGRIFIRYAMGWYRQAPGKERELVAAISRSGGSTYYADSVKGRITISRDNAKNTVYLQMNSLKPEDTAVYYCAAVSSSTWLEYYYWGQGTQVTVSS”, for which the “polyreactivity (PSR sort gate)” value is given as “high polyreactivity”.

For “QVQLVESGGGLVQAGGSLRLSCAASGRIFIRYAMGWYRQAPGKERELVAVITTGGSTNADSVKGRFTISRDNAKNTVYLQMNSVKPEDTAVYYCNAKVRVYTRGYFRYWYDYWGQGTQVTVSS”, the “polyreactivity (PSR sort gate)” value is recorded as “high polyreactivity”.

Consider “QVQLVESGGGLVQAGGSLRLSCAASGRIFITNAMGWYRQAPGKERELVAAIRRRGGNTYYADSVKGRFTISRDNANNTVYLQINSLKPEDTAVYYCAVYPRPYKYNYWGQGTQVTVSS”, for which the “polyreactivity (PSR sort gate)” value is reported as “high polyreactivity”.

Take “QVQLVESGGGLVQAGGSLRLSCAASGRIFITNTMGWYRQAPGKERELVAAISRTGGSTYYADSVKGRFTISRDNAKNTVYLQMNSLKPEDTAVYYCNADWYGQLWWGVDYWGQGTQVTVSS”: the “polyreactivity (PSR sort gate)” value was “high polyreactivity”.

Consider “QVQLVESGGGLVQAGGSLRLSCAASGRIFIVYVMVWYRQAPGKESELVAAITGRGGSTYYADSVKGRFTISHDNAKNTVYLQMNSLKPEDTAVYYCDDYDGGGYDSWGQGNQVTVSS”, for which the “polyreactivity (PSR sort gate)” value is “low polyreactivity”.

“QVQLVESGGGLVQAGGSLRLSCAASGRIFIWYGMGWYRQAPGKERELVADISSTGSTNYADSVKGRFTISRDNAKNTVYLQMNSLKPEDTAVYYCAADPETPYYTTYDYDYWGQGTQVTVSS”: the “polyreactivity (PSR sort gate)” value is listed as “low polyreactivity”.

With “QVQLVESGGGLVQAGGSLRLSCAASGRIFIYNAMGWSRQAPGIERELVARIRDRGDSTNYADSVKGRFTISRDNAKNTVYLQMNSLKPEDTAVYYCAAQPWLRYYYWGQGTQVTVSS”, the “polyreactivity (PSR sort gate)” value is reported as “low polyreactivity”.

As to “QVQLVESGGGLVQAGGSLRLSCAASGRIFIYYAMGRYRQAPGKERELVAGIDYSGGSTYYADSVKGRFTISRDNAKNTVYLQMNSLKPEDTAVYFCAAGKYRHYYGRSFYRFDYWGKGTQVTVSS”, the “polyreactivity (PSR sort gate)” value is reported as “high polyreactivity”.

Regarding “QVQLVESGGGLVQAGGSLRLSCAASGRIFIYYTMGWYRQAPGKERELVAAINSGGSTKYADSVKGRFTISRDNAKNTVYLQMNSLKPEDTAVYYCARRGGFSYYYWGQGTQVTVSS”, the “polyreactivity (PSR sort gate)” value is given as “high polyreactivity”.

With “QVQLVESGGGLVQAGGSLRLSCAASGRIFKGYAMGWYRQAPGKERELVAAITWRGGTTYYADSVKGRFTISRDNAKNTVYLQMNSLKPEDTAVYYCATTRYPRSYDYYYWGQGTQVTVSS”, the “polyreactivity (PSR sort gate)” value was “high polyreactivity”.

As for “QVQLVESGGGLVQAGGSLRLSCAASGRIFKLYAMGWYRQAPGKERELVAAISKSGGNTYADSVKGRFTISRDNAKNPVYLQMNSLKPEDTAVYYCAATVQSTSDPFDYLGQGTQVTVSS”, the “polyreactivity (PSR sort gate)” value is “low polyreactivity”.

Turning to “QVQLVESGGGLVQAGGSLRLSCAASGRIFKLYAMGWYRQAPGKERELVAAISTSAGSTNYADSVKGRFTISRDNSKNTVYLQMNSLKPEDTAVYYCAVAGVSTYYTYYYWGQGTQVTVSS”, the “polyreactivity (PSR sort gate)” value is given as “low polyreactivity”.

“QVQLVESGGGLVQAGGSLRLSCAASGRIFKLYARGWYRQAPGKERELVAAITSGGRTNYADSVKGRFTISRDNAKNTVYLQMNSLKPEDTAVYYCAARYYIVSLGSGYWGQGTQVTVSS”: the “polyreactivity (PSR sort gate)” value is reported as “high polyreactivity”.

For the origin of these results see the nanobody polyreactivity screen of Harvey et al. (2022).
